Test results reported in patent US20240262922A1 (Merck KGaA, published 2024).

Key:
[1] = target: T1, recombinant human OX40L protein (R&D Systems, cat. #1054-OX) (human, UniProt P23510 51-183); assay: SPR steady state, Biacore T200; OX40L immobilised on CM5, FcFab in solution
T1 construct: Bought soluble recombinant protein; also called rhOX40L; recombinant soluble OX40L
T1 sequence: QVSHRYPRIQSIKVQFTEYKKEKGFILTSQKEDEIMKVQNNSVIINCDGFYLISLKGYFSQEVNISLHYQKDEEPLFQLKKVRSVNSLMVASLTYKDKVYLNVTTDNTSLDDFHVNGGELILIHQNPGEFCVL
Method: Recombinant OX40L proteins (human OX40L protein, R&D systems, cat. #1054-OX; cynomolgus monkey OX40L, Novoprotein cat. #CP72) were immobilized onto Biacore CM5 sensor chips and anti-OX40L antibodies were bound to this surface at a range of concentrations. The response at steady state was measured with a Biacore T200 instrument (GE Healthcare) and plotted against the concentration of antibody and fit to a 1:1 binding model. The steady state KD was determined as the antibody concentration at a response equal to half the maximal response (Rₘₐₓ).
As with the IgG clones, binding affinity to human OX40L was determined for all twelve FcFabs using steady state affinity assay as described in section 1.1.7 of Example 1. […]

[2] = target: T1, recombinant human OX40L protein (R&D …); assay: cell-based or functional assay
[3] = target: T2, AVI-GST-His6-hOX40L (human, UniProt P23510 51-183); assay: cell-based or functional assay
T2 sequence: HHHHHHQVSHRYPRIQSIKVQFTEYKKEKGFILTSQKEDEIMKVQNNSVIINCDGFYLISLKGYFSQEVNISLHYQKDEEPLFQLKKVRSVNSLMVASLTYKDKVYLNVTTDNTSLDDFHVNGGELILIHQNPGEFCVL

| Binder | Kd [1] | Primary T cell activation assay IC50 [2] | OX40L neutralization/OX40-HEK Reporter IC50 [3] |
| --- | --- | --- | --- |
| 95B06 (FcFab) (antibody) chain 1: EPKSSDKTHTCPPCPAPPVAGPSVFLFPPKPKDTLMISRTPEVTCVVVDVSHEDPEVKFNWYVDGVEVHNAKTKPREEQYNSTYRVVSVLTVLHQDWLNGKEYKCAVSNKALPSSIEKTISKAKGQPREPQVYTLPPSREEMTKNQVSLTCLVKGFYPSDIAVEWESNGQPENNYKTTPPVLDSDGSFFLYSKLTVDKSRWQQGNVFSCSVMHEALHNHYTQKSLSLSPGAGGGGSGGGGSGGGGSEVQLLESGGGLVQPGGSLRLSCAASGFTFSSYAMTWVRQAPGKGLEWVSDISGSGGSTKYADSVKGRFTISRDNPKNTLYLQMNSLRAEDTAVYYCAKDLGFYSTWDTDYWGQGTLVTVSSASTKGPSVFPLAPSSKSTSGGTAALGCLVKDYFPEPVTVSWNSGALTSGVHTFPAVLQSSGLYSLSSVVTVPSSSLGTQTYICNVNHKPSNTKVDKRVEPKSC chain 2: DMQMTQSPSSLSASVGDRVTITCRASQGIRNDLDWYQQKPGKVPKRLIHAASSLQSGVPSRFSGSGSGTEFTLTISSLQPEDFVTYYCLQHNTYPWTFGQGTKLEIKRTVAAPSVFIFPPSDEQLKSGTASVVCLLNNFYPREAKVQWKVDNALQSGNSQESVTEQDSKDSTYSLSSTLTLSKADYEKHKVYACEVTHQGLSSPVTKSFNRGEC | 64.1 nM | 38 nM | 30.8 nM |
| 88B06 (FcFab) (antibody) chain 1: EPKSSDKTHTCPPCPAPPVAGPSVFLFPPKPKDTLMISRTPEVTCVVVDVSHEDPEVKFNWYVDGVEVHNAKTKPREEQYNSTYRVVSVLTVLHQDWLNGKEYKCAVSNKALPSSIEKTISKAKGQPREPQVYTLPPSREEMTKNQVSLTCLVKGFYPSDIAVEWESNGQPENNYKTTPPVLDSDGSFFLYSKLTVDKSRWQQGNVFSCSVMHEALHNHYTQKSLSLSPGAGGGGSGGGGSGGGGSEVQLLESGGGLVQPGGSLRLSCAASGFTFSNYAMSWVRQAPGKGLEWVSVISGSGDSTYYAESVKGRFTISRDNSKNTLYLQMTSLRAEDTAEYYCAKDRTPVYGLDVWGQGTTVTVSSASTKGPSVFPLAPSSKSTSGGTAALGCLVKDYFPEPVTVSWNSGALTSGVHTFPAVLQSSGLYSLSSVVTVPSSSLGTQTYICNVNHKPSNTKVDKRVEPKSC chain 2: SYELTQPLSVSVALGQTARISCGGNNIGRKNVHWYQQKPGQAPVLVIYGDSNRPSGIPERFSGSNSGNTATLTIGRAQAGDEADYYCQVWDSSTVFGGGTKLTVLGQPKAAPSVTLFPPSSEELQANKATLVCLISDFYPGAVTVAWKADSSPVKAGVETTTPSKQSNNKYAASSYLSLTPEQWKSHKSYSCQVTHEGSTVEKTVAPTECS | 35.5 nM | > 161 nM | 102 nM |
| 98C01 (FcFab) (antibody) heavy: EPKSSDKTHTCPPCPAPPVAGPSVFLFPPKPKDTLMISRTPEVTCVVVDVSHEDPEVKFNWYVDGVEVHNAKTKPREEQYNSTYRVVSVLTVLHQDWLNGKEYKCAVSNKALPSSIEKTISKAKGQPREPQVYTLPPSREEMTKNQVSLTCLVKGFYPSDIAVEWESNGQPENNYKTTPPVLDSDGSFFLYSKLTVDKSRWQQGNVFSCSVMHEALHNHYTQKSLSLSPGAGGGGSGGGGSGGGGSQVQLQESGPGLVKPSETLSLTCTVSGGSISSSSYYWGWIRQPPGKGLEWIGGIGSVDYSGNTYYKPSLKSRVTISVDTSKNQFSLKLSSVTAADTAVYHCARHRGIYFFDYWGQGTLVTVSSASTKGPSVFPLAPSSKSTSGGTAALGCLVKDYFPEPVTVSWNSGALTSGVHTFPAVLQSSGLYSLSSVVTVPSSSLGTQTYICNVNHKPSNTKVDKRVEPKSC light: SYELTQPPSVSVALGQTARITCGGNNIENKNVHWYQQKPGQAPVLVIYRDSNRPSGIPERFSGSNSGNTATLSINRAQAGDEADYYCQVWDSNTVVFGGGTKLTVLGQPKAAPSVTLFPPSSEELQANKATLVCLISDFYPGAVTVAWKADSSPVKAGVETTTPSKQSNNKYAASSYLSLTPEQWKSHKSYSCQVTHEGSTVEKTVAPTECS | 27.8 nM | – | 5.4 nM |
| 68F03 (FcFab) (antibody) chain 1: EPKSSDKTHTCPPCPAPPVAGPSVFLFPPKPKDTLMISRTPEVTCVVVDVSHEDPEVKFNWYVDGVEVHNAKTKPREEQYNSTYRVVSVLTVLHQDWLNGKEYKCAVSNKALPSSIEKTISKAKGQPREPQVYTLPPSREEMTKNQVSLTCLVKGFYPSDIAVEWESNGQPENNYKTTPPVLDSDGSFFLYSKLTVDKSRWQQGNVFSCSVMHEALHNHYTQKSLSLSPGAGGGGSGGGGSGGGGSQLQLQESGPGLVKPSETLSLTCTVSGGSIDTSSQYWAWIRQPPGKGLEWIGGIYFSGSTYQNPSLKSRVTTSVDTSKNQFSLRLSSMTAADTAVYYCARHRGIYFFDYWGQGTLVTVSSASTKGPSVFPLAPSSKSTSGGTAALGCLVKDYFPEPVTVSWNSGALTSGVHTFPAVLQSSGLYSLSSVVTVPSSSLGTQTYICNVNHKPSNTKVDKRVEPKSC chain 2: SFELTQPLSVSVALGQTARITCGGINIENKNVHYYQQKPGQAPVLVIYRDTNRPSGIPERFSGSNSGNTATLTISRAQAGDEADYYCQVWDSNTVIFGGGTKVTVLGQPKAAPSVTLFPPSSEELQANKATLVCLISDFYPGAVTVAWKADSSPVKAGVETTTPSKQSNNKYAASSYLSLTPEQWKSHKSYSCQVTHEGSTVEKTVAPTECS | 33.1 nM | 15.6 nM | 5.5 nM |
| 30F02 (FcFab) (antibody) chain 1: EPKSSDKTHTCPPCPAPPVAGPSVFLFPPKPKDTLMISRTPEVTCVVVDVSHEDPEVKFNWYVDGVEVHNAKTKPREEQYNSTYRVVSVLTVLHQDWLNGKEYKCAVSNKALPSSIEKTISKAKGQPREPQVYTLPPSREEMTKNQVSLTCLVKGFYPSDIAVEWESNGQPENNYKTTPPVLDSDGSFFLYSKLTVDKSRWQQGNVFSCSVMHEALHNHYTQKSLSLSPGAGGGGSGGGGSGGGGSQLQLQESGPGLVKPSETLSLTCTVSGASISSSNHYWGWGWIRQPPGKGLEWIGSIYYSGNTYYNPSLKSRVTISVDTSKNQFSLKLSSVTAADTAVYYCARHRGSYFFDHWGQGTLVTVSSASTKGPSVFPLAPSSKSTSGGTAALGCLVKDYFPEPVTVSWNSGALTSGVHTFPAVLQSSGLYSLSSVVTVPSSSLGTQTYICNVNHKPSNTKVDKRVEPKSC chain 2: SYVLTQPLSVSVALGQTARITCGGNNIGDKNVHWYQQKPGQAPVLVISRDSNRPSGIPERFSGSNSGNTATLTISRAQAGDESDYYCQVWDSSTVVFGGGTKVTVLGQPKAAPSVTLFPPSSEELQANKATLVCLISDFYPGAVTVAWKADSSPVKAGVETTTPSKQSNNKYAASSYLSLTPEQWKSHKSYSCQVTHEGSTVEKTVAPTECS | 56 nM | 2.9 nM | 52.8 nM |
| 98E10 (FcFab) (antibody) heavy: EPKSSDKTHTCPPCPAPPVAGPSVFLFPPKPKDTLMISRTPEVTCVVVDVSHEDPEVKFNWYVDGVEVHNAKTKPREEQYNSTYRVVSVLTVLHQDWLNGKEYKCAVSNKALPSSIEKTISKAKGQPREPQVYTLPPSREEMTKNQVSLTCLVKGFYPSDIAVEWESNGQPENNYKTTPPVLDSDGSFFLYSKLTVDKSRWQQGNVFSCSVMHEALHNHYTQKSLSLSPGAGGGGSGGGGSGGGGSQLQLQESGPGLVKPSETLSLTCTVAGASVSSSSYYWGWIRQSPGKGLEWIGTINYGGSTYHNPSLKRRVTVSVDTSKNQFSLKLTSVTAADTAVYYCARHRGIYHFDYWGQGTLVTVSSASTKGPSVFPLAPSSKSTSGGTAALGCLVKDYFPEPVTVSWNSGALTSGVHTFPAVLQSSGLYSLSSVVTVPSSSLGTQTYICNVNHKPSNTKVDKRVEPKSC light: SYELTQPLSVSVALGQTARITCGGNNIENKNVHWYQQMPGQAPVLVIYRDSNRPSGIPERFSGSNSGNTATLTINRAQAGDEADYYCQVWDSNTVVFGGGTKVTVLGQPKAAPSVTLFPPSSEELQANKATLVCLISDFYPGAVTVAWKADSSPVKAGVETTTPSKQSNNKYAASSYLSLTPEQWKSHKSYSCQVTHEGSTVEKTVAPTECS | 33 nM | 5.3 nM | 5.7 nM |
| 89B09 (FcFab) (antibody) heavy: EPKSSDKTHTCPPCPAPPVAGPSVFLFPPKPKDTLMISRTPEVTCVVVDVSHEDPEVKFNWYVDGVEVHNAKTKPREEQYNSTYRVVSVLTVLHQDWLNGKEYKCAVSNKALPSSIEKTISKAKGQPREPQVYTLPPSREEMTKNQVSLTCLVKGFYPSDIAVEWESNGQPENNYKTTPPVLDSDGSFFLYSKLTVDKSRWQQGNVFSCSVMHEALHNHYTQKSLSLSPGAGGGGSGGGGSGGGGSEVQLVESGPGLVKPSETLSLTCTVSGVSIRSNGYYWGWIRQSPGKGLEWIGNMDYSGTYQNPSLTSRVTISGDASKNQFSLKLRSVTAADTAVYFCARERSNNWYPIDYWGQGTLVTVSSASTKGPSVFPLAPSSKSTSGGTAALGCLVKDYFPEPVTVSWNSGALTSGVHTFPAVLQSSGLYSLSSVVTVPSSSLGTQTYICNVNHKPSNTKVDKRVEPKSC light: SSELTQDPAVSVALGQTVRITCQGDSVRRFFAHWYQQKPGQAPILVISGKDTRPSGIPDRFSGSISGNTASLTITGAQAEDEADYYCNSRDSSGYLVLFGGGTKLTVLGQPKAAPSVTLFPPSSEELQANKATLVCLISDFYPGAVTVAWKADSSPVKAGVETTTPSKQSNNKYAASSYLSLTPEQWKSHKSYSCQVTHEGSTVEKTVAPTECS | 44.8 nM | 6.1 nM | 4.7 nM |
